Test results reported in patent US20230348578A1, “CONFORMATION-SPECIFIC ANTIBODIES THAT BIND TAU PROTEIN AND USES THEREOF” (Beth Israel Deaconess Medical Center, Inc., priority 2020, published 2023).

Legend:
cis P-tau = cis P-tau (Homo sapiens, UniProt P10636); experiment: Elimination of cis P-tau in cultured neurons stressed by hypoxia; format: cell-based; set-up: endogenous in cells; details: 2.5 μg/ml, 5 μg/ml and 10 μg/ml
Protocol: (§1) The binding affinity of selected humanized antibody clones was determined by Biacore assay using a wild-type P-tau peptide and its pure cis or cis-locked, and pure trans counterparts. The […] of the selected humanized cis mAb variants was determined by assessing their ability to eliminate cis P-tau in stressed neurons in cell cultures. Functional restoration of selected clones was determined by their ability to restore risk-taking behavior after 3-hit or 7-hit repetitive TBI in mice, as assayed by elevated plus maze.
Cultured neurons were subjected to neuron stress by hypoxia in the presence or absence of different concentration of humanized antibody variants, followed by immunoblotting analysis to analyze cis P-tau levels in the stressed neurons, the results of which are provided in FIGS. 2-4. FIG. 2 is an immunostaining image showing the ability of humanized cis pT231-tau monoclonal antibody variants to eliminate cis P-tau in neurons under hypoxic conditions. Cis P-tau levels are reported in red and blue reports nuclear staining (Hoechst) to represent all neurons in the experiment. […] Cis P-tau levels are reported in red and blue reports nuclear staining (Hoechst) to represent all neurons in the experiment. […] IgG is a negative control. The cis-pTau monoclonal antibody C113 serves as a positive control.

[1] = target: cis pT231-tau (P-tau peptide, pure cis or cis-locked); experiment: Biacore assay of binding affinity of humanized cis mAb variants
Source text: We next started to characterize and select lead humanized mAbs. We expressed and purified humanized mAb variants using a CHO expression system. We transfected over 45 plasmid DNA pairs of heavy and light chain cDNAs into CHO cells to express over 225 humanized cis mAb variants in various combinations. To evaluate the target binding specificity and affinity of our mouse mAbs, we established a simple and quantitative ELISA to screen the clones using a wild-type P-tau peptide and its pure cis or cis-locked, and pure trans counterparts and determined the binding affinity for selected clones using Biacore assays. We screened over 200 humanized cis mAb variants. […] Furthermore, one-tenth of humanized cis mAb variants were also able to recognize cis P-tau in human AD and TBI brains based on immunostaining analysis.
as §1

cis P-tau, sequence (P10636 1-441 isoform P10636-8): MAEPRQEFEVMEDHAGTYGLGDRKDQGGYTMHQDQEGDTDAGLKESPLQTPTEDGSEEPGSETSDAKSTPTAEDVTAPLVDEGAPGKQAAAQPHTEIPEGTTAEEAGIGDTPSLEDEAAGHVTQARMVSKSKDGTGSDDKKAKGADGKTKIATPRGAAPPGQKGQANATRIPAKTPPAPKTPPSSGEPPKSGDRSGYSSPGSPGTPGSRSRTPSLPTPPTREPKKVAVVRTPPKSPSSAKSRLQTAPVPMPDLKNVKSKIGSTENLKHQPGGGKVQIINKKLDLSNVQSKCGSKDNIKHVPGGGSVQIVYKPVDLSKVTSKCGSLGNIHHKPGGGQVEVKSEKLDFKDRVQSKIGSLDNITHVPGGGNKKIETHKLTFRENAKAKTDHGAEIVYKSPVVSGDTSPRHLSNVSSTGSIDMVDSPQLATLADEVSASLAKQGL

Molecule	elimination of cis P-tau in neurons under hypoxic conditions (images) (cis P-tau)	Kd [1] [nM]
C113: previously described murine cis-pTau monoclonal antibody (U.S. Pat. No. 9,688,747); SEQ ID NO: 24 and 15; positive control (antibody, V domains shown, previously described murine cis-pTau monoclonal antibody (U.S. Pat. No. 9,688,747); positive control) VH: QVQLQQPGAELVKPGASVKMSCKASGYTFTSYWIHWVKQRPGQGLEWIGVIDPSDSYTRYNQKFKGKATLTVDTSSSTAYMQLSSLTSEDSAVYYCTTWEVDYWGQGTTLTVSS VL: DVVMTQTPLSLPVSLGDQASISCRSSQSLVHSDGNTYLHWYLQKPGQSPKLLIYKVSNRFSGVPDRFSGSGSGTDFTLKISRLEAEDLGVYFCSQSTHVPWTFGGGTKLEIK	elimination of cis P-tau	–
HT13: mouse-human chimera control antibody; heavy chain variable domain SEQ ID NO: 24, light chain variable domain SEQ ID NO: 15 (antibody, V domains shown) VH: QVQLQQPGAELVKPGASVKMSCKASGYTFTSYWIHWVKQRPGQGLEWIGVIDPSDSYTRYNQKFKGKATLTVDTSSSTAYMQLSSLTSEDSAVYYCTTWEVDYWGQGTTLTVSS VL: DVVMTQTPLSLPVSLGDQASISCRSSQSLVHSDGNTYLHWYLQKPGQSPKLLIYKVSNRFSGVPDRFSGSGSGTDFTLKISRLEAEDLGVYFCSQSTHVPWTFGGGTKLEIK	elimination of cis P-tau	1.26
HT4: humanized cis-pThr231-tau mAb; heavy chain variable domain SEQ ID NO: 28, light chain variable domain SEQ ID NO: 16 (antibody, V domains shown) VH: QVQLVQSGAEVKKPGASVKVSCKASGYTFTSYWIHWVRQRPGQGLEWIGVIDPSDSYTRYNQKFKGRVTITRDTSASTAYMELSSLRSEDTAVYYCTTWEVDYWGQGTLVTVSS VL: DVVMTQSPLSLPVTLGQPASISCRSSQSLVHSDGNTYLHWYLQKPGQSPQLLIYKVSNRFSGVPDRFSGSGSGTDFTLKISRVEAEDVGVYFCSQSTHVPWTFGGGTKVEIK	–	2.42
HT5: humanized cis-pThr231-tau mAb; heavy chain variable domain SEQ ID NO: 25, light chain variable domain SEQ ID NO: 18 (antibody, V domains shown) VH: QVQLVQSGAELKKPGASVKMSCKASGYTFTSYWIHWVKQRPGQGLEWIGVIDPSDSYTRYNQKFKGRATLTVDTSASTAYMQLSSLTSEDSAVYYCTTWEVDYWGQGTTVTVSS VL: DVVMTQSPLSLPVTLGQPASISCRSSQSLVHSDGNTYLHWYLQKPGQSPQLLIYKVSNRDSGVPDRFSGSGSGTDFTLKISRVEAEDVGVYFCSQSTHVPWTFGGGTKVEIK	–	6.91
HT6: humanized cis-pThr231-tau mAb; heavy chain variable domain SEQ ID NO: 26, light chain variable domain SEQ ID NO: 18 (antibody, V domains shown) VH: QVQLVQSGAEVKKPGASVKMSCKASGYTFTSYWIHWVKQRPGQGLEWIGVIDPSDSYTRYNQKFKGRATLTVDTSASTAYMELSSLRSEDTAVYYCTTWEVDYWGQGTLVTVSS VL: DVVMTQSPLSLPVTLGQPASISCRSSQSLVHSDGNTYLHWYLQKPGQSPQLLIYKVSNRDSGVPDRFSGSGSGTDFTLKISRVEAEDVGVYFCSQSTHVPWTFGGGTKVEIK	–	6.48
HT7: humanized cis-pThr231-tau mAb; heavy chain variable domain SEQ ID NO: 27, light chain variable domain SEQ ID NO: 18 (antibody, V domains shown) VH: QVQLVQSGAEVKKPGASVKVSCKASGYTFTSYWIHWVRQRPGQGLEWIGVIDPSDSYTRYNQKFKGRVTLTVDTSASTAYMELSSLRSEDTAVYYCTTWEVDYWGQGTLVTVSS VL: DVVMTQSPLSLPVTLGQPASISCRSSQSLVHSDGNTYLHWYLQKPGQSPQLLIYKVSNRDSGVPDRFSGSGSGTDFTLKISRVEAEDVGVYFCSQSTHVPWTFGGGTKVEIK	–	10.8
HT9: humanized cis-pThr231-tau mAb; heavy chain variable domain SEQ ID NO: 25, light chain variable domain SEQ ID NO: 19 (antibody, V domains shown) VH: QVQLVQSGAELKKPGASVKMSCKASGYTFTSYWIHWVKQRPGQGLEWIGVIDPSDSYTRYNQKFKGRATLTVDTSASTAYMQLSSLTSEDSAVYYCTTWEVDYWGQGTTVTVSS VL: DVVMTQSPLSLPVTLGQPASISCRSSQSLVHSDGNTYLHWYLQKPGQSPQLLIYKVSNRFSGVPDRFSGSGSGTDFTLKISRVEAEDVGVYYCSQSTHVPWTFGGGTKVEIK	–	1.89
HT11: humanized cis-pThr231-tau mAb; heavy chain variable domain SEQ ID NO: 27, light chain variable domain SEQ ID NO: 19 (antibody, V domains shown) VH: QVQLVQSGAEVKKPGASVKVSCKASGYTFTSYWIHWVRQRPGQGLEWIGVIDPSDSYTRYNQKFKGRVTLTVDTSASTAYMELSSLRSEDTAVYYCTTWEVDYWGQGTLVTVSS VL: DVVMTQSPLSLPVTLGQPASISCRSSQSLVHSDGNTYLHWYLQKPGQSPQLLIYKVSNRFSGVPDRFSGSGSGTDFTLKISRVEAEDVGVYYCSQSTHVPWTFGGGTKVEIK	–	3.99
HT12: humanized cis-pThr231-tau mAb; heavy chain variable domain SEQ ID NO: 28, light chain variable domain SEQ ID NO: 19 (antibody, V domains shown) VH: QVQLVQSGAEVKKPGASVKVSCKASGYTFTSYWIHWVRQRPGQGLEWIGVIDPSDSYTRYNQKFKGRVTITRDTSASTAYMELSSLRSEDTAVYYCTTWEVDYWGQGTLVTVSS VL: DVVMTQSPLSLPVTLGQPASISCRSSQSLVHSDGNTYLHWYLQKPGQSPQLLIYKVSNRFSGVPDRFSGSGSGTDFTLKISRVEAEDVGVYYCSQSTHVPWTFGGGTKVEIK	–	3.55
HT14: humanized cis-pThr231-tau mAb; heavy chain variable domain SEQ ID NO: 25, light chain variable domain SEQ ID NO: 17 (antibody, V domains shown) VH: QVQLVQSGAELKKPGASVKMSCKASGYTFTSYWIHWVKQRPGQGLEWIGVIDPSDSYTRYNQKFKGRATLTVDTSASTAYMQLSSLTSEDSAVYYCTTWEVDYWGQGTTVTVSS VL: DVVMTQSPLSLPVTLGQPASISCRSSQSLVHSDGNTYLNWYLQKPGQSPQLLIYKVSNRFSGVPDRFSGSGSGTDFTLKISRVEAEDVGVYFCSQSTHVPWTFGGGTKVEIK	–	30.2
HT15: humanized cis-pThr231-tau mAb; heavy chain variable domain SEQ ID NO: 26, light chain variable domain SEQ ID NO: 17 (antibody, V domains shown) VH: QVQLVQSGAEVKKPGASVKMSCKASGYTFTSYWIHWVKQRPGQGLEWIGVIDPSDSYTRYNQKFKGRATLTVDTSASTAYMELSSLRSEDTAVYYCTTWEVDYWGQGTLVTVSS VL: DVVMTQSPLSLPVTLGQPASISCRSSQSLVHSDGNTYLNWYLQKPGQSPQLLIYKVSNRFSGVPDRFSGSGSGTDFTLKISRVEAEDVGVYFCSQSTHVPWTFGGGTKVEIK	–	33.4
HT16: humanized cis-pThr231-tau mAb; heavy chain variable domain SEQ ID NO: 27, light chain variable domain SEQ ID NO: 17 (antibody, V domains shown) VH: QVQLVQSGAEVKKPGASVKVSCKASGYTFTSYWIHWVRQRPGQGLEWIGVIDPSDSYTRYNQKFKGRVTLTVDTSASTAYMELSSLRSEDTAVYYCTTWEVDYWGQGTLVTVSS VL: DVVMTQSPLSLPVTLGQPASISCRSSQSLVHSDGNTYLNWYLQKPGQSPQLLIYKVSNRFSGVPDRFSGSGSGTDFTLKISRVEAEDVGVYFCSQSTHVPWTFGGGTKVEIK	–	3.26
HT17: humanized cis-pThr231-tau mAb; heavy chain variable domain SEQ ID NO: 28, light chain variable domain SEQ ID NO: 17 (antibody, V domains shown) VH: QVQLVQSGAEVKKPGASVKVSCKASGYTFTSYWIHWVRQRPGQGLEWIGVIDPSDSYTRYNQKFKGRVTITRDTSASTAYMELSSLRSEDTAVYYCTTWEVDYWGQGTLVTVSS VL: DVVMTQSPLSLPVTLGQPASISCRSSQSLVHSDGNTYLNWYLQKPGQSPQLLIYKVSNRFSGVPDRFSGSGSGTDFTLKISRVEAEDVGVYFCSQSTHVPWTFGGGTKVEIK	–	4940
